In US20210063414A1, “METHODS FOR PREVENTING AND/OR TREATING BONE LOSS CONDITIONS BY MODULATING IRISIN” (Dana-Farber Cancer Institute, Inc., priority 2018, published 2021):

Biological target: T1, MLO-Y4 cell surface proteins (Mus musculus, UniProt Q3U2P1)
T1 construct: endogenous in cells; host or cells: MLO-Y4
T1 sequence (Q3U2P1 1-1090): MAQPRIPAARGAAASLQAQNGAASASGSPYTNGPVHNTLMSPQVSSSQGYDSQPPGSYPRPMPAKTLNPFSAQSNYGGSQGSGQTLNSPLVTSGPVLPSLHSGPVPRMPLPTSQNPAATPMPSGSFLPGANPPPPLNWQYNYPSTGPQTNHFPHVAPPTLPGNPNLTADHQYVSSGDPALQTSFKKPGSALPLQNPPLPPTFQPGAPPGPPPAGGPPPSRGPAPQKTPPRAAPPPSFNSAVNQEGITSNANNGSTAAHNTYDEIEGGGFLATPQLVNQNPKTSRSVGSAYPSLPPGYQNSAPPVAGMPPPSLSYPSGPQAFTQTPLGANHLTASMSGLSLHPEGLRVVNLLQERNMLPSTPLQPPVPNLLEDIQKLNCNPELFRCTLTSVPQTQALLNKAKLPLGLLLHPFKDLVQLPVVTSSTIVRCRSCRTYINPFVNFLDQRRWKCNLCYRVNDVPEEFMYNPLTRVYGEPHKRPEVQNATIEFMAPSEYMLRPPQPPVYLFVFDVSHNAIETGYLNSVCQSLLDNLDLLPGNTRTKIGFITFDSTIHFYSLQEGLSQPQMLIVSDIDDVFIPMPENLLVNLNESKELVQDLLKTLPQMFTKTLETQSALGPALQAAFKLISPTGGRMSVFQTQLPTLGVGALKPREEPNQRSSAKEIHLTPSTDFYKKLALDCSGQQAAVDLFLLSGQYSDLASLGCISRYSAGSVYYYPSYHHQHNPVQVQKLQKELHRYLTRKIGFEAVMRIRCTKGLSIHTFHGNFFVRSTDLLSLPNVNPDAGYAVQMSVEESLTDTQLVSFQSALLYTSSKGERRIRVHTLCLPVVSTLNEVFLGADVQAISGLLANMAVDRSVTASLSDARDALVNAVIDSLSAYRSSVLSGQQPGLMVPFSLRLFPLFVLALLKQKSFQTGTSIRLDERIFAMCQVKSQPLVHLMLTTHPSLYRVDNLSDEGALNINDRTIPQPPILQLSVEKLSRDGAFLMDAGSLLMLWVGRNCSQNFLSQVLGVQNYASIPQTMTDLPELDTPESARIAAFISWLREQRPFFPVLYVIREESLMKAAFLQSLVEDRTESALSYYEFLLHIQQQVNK
Experiment: Crosslinking/co-immunoprecipitation/mass spectrometry (TMT quantitative proteomics) to identify irisin receptors
Assay type: binding
Conditions: co-precipitated protein Sec24a (SC24A_MOUSE)
Protocol: MLO-Y4 cells were seeded on 30×150 mm type-I collagen coated dishes as described in cell culture experiment. At 60% cell density, medium was switched to FreeStyle™ 293 Expression medium. After 4 hours incubation, the cells were chilled on ice for 10 minutes, followed by treatment of 10 nM his-tag irisin or his-tag adipsin for 20 minutes. The cells were then incubated with 1.5 mM DTSSP for 30 minutes on ice to do cross-linking, after washing with 15 ml cold PBS twice. The cross-linking was quenched by addition of a final concentration of 20 mM Tris-pH 7.5. The cells were then harvested and homogenized in 1 ml RIPA buffer containing proteaseinhibitor cocktailand phosphatase-inhibitor cocktail. Whole-cell lysates were homogenized by 10 times passages through a 22G needle fitted to a 3 ml syringe. Homogenized samples were rotated gently in cold room for 20 minutes followed by 15,000×g centrifugation for 10 minutes. After addition of a final concentration of 10 mM imidazole, supernatants were incubated with 100 μl Ni-NTA agarose for 1 hour. After centrifugation at 500×g for 1 minute, the supernatants were aspirated and 1 ml cold RIPA buffer containing 10 mM imidazole were added to the agarose. After 10 minutes rotation in cold room, the supernatants were aspirated and 1 ml cold RIPA buffer containing 30 mM imidazole were added to the agarose. After repeating the washing 3 times, 0.8 ml RIPA buffer containing 250 mM imidazole was added and the agarose was gently rotated in a cold room for 20 minutes. After centrifugation at 1000×g for 2 minutes, the supernatants were transferred to 1.5 ml tube and incubated with 100 μl 0.2% sodium deoxycholate and 100 μl 10% trichloroacetic acid in ice for 1 hour. After centrifugation at 12,000×g for 10 minutes at 4° C., the supernatants were removed and 1 ml cold acetone was added to the pellets followed by vortexing for 10 seconds. After one more washing with cold acetone, the pellets were dried at 37° C., and 39 μl PBS and 13 μl 4×NuPAGE LDS were added to the pellets with a final concentration of 5 mM DTT. Solubilized proteins were incubated at 65° C. for 20 minutes followed by incubation with a final concentration of 14 mM iodoacetamide for 45 minutes in the dark. 38 μl samples were loaded to 4-12% gradient SDS-PAGE for separation followed by Coomassie Blue staining. The gels were submitted to quantitative proteomics.
For in-gel digestions, gels were stained with Coomassie Blue and were excised into 8 equal segments for control and irisin lanes. Gel pieces were destained and dehydrated with 100% acetonitrile, vacuumed dried, and digested in 25 mM HEPES (pH 8.5) with 500 ng sequencing grade trypsin (Promega) and incubated for an overnight at 37° C. (Shevchenko et al. (1996) Anal. Chem. 68:850-858). Digests were treated with 1% formic acid and purified using C18 Stage-Tips as previously described (Rappsilber et al. (2007) Nat. Protoc. 2:1896-1906). Peptides were eluted with 70% acetonitrile and 1% formic acid, then dried using a speedvac. Isobaric labeling of digested peptides was accomplished using 6-plex tandem mass tag (TMT) reagents (Thermo Fisher Scientific, Rockford, Ill.). Reagents, 5.0 mg, were dissolved in 252 μl acetonitrile (ACN) and 5 μl of the solution was added to the digested peptides dissolved in 25 μl of 200 mM HEPES, pH 8.5. After 1 hour at room temperature, the reaction was quenched by adding 1 μl of 5% hydroxylamine. Labeled peptides were combined and acidified prior to C18 Stage-Tips desalting.
All LC-MS/MS experiments were performed on an Orbitrap Fusion™ Lumos mass spectrometer (Thermo Fisher Scientific, San Jose, Calif., USA) coupled with a Proxeon EASY-nLC™ 1200 LC pump (Thermo Fisher Scientific). Peptides were separated on a 100 μm inner diameter microcapillary column packed with 35 cm of Accucore™ C18 resin (1.8 μm, 100 Å, Thermo Fisher Scientific). […]

- TMT signal-to-noise ratio: 118.999
Substance: adipsin
